This is an account of results in US6972319B1, “Pituitary adenylate cyclase activating peptide (PACAP)receptor 3 (R3) agonists and their pharmacological methods of use” (priority 1999, dated 2005).

For this assay, the target named is T1, PACAP-R3 (human, UniProt P41587 24-438).
T1 sequence (looked up): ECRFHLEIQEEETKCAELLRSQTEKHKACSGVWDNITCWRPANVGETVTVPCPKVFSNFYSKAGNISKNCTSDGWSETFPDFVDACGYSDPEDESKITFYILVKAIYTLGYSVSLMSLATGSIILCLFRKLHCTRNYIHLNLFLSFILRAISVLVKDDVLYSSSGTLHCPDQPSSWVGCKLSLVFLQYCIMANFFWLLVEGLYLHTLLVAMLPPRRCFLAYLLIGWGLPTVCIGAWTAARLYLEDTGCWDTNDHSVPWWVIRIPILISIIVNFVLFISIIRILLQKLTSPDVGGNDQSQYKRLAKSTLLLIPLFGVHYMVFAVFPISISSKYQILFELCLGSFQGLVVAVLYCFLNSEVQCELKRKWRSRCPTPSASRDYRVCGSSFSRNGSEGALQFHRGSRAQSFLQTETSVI
Nature of the assay: cell-based or functional assay.

No end group written: not given here.

B1: R3P7 (peptide)
peptide: HSDAVFTENYTRLRKQMAVKKYLNSLKK-NH2
As for B1, the “R3 EC50” value turned out to be 4 nM and the “R3 Selectivity” value was determined as 0.5.

B2: R3P80 (peptide)
peptide: HSDAVFTDNYTRLRKQVAVKKYLQSIKKKR
With B2, the “R3 EC50” value stood at 0.44 nM.

B3: R3P2 (peptide)
peptide: Ac-HSDAVFTENYTKLRKQLAAKKYLNDLKKGGT
modifications: ends and bridges not checked
On to B3, for which the “R3 EC50” value amounted to 3 nM and the “R3 Selectivity” value is greater than 300.

B4: R3P81 (peptide)
peptide: HSDAVFTDNYTRLRKQVAVKKYLQSIKKK
With B4, the “R3 EC50” value turned out to be 0.5 nM and the “R3 Selectivity” value was 100.

B5: R3P5 (peptide)
peptide: HSDAVFTENYTKLRKQLAAKKYLNDLKK
On to B5, for which the “R3 EC50” value is 7 nM and the “R3 Selectivity” value was determined as 30.

B6: R3P16 (peptide)
peptide: HSDGIFTDSYSRYRKQMAVKKYLAAVKQGGT-NH2
As for B6, the “R3 EC50” value was 10 nM and the “R3 Selectivity” value worked out at 1.4.

B7: R3P6 (peptide)
peptide: HSDGIFTESYSRYRKQMAVKKYLAALKKKRYKQRVKNK
With B7, the “R3 EC50” value came out at 80 nM and the “R3 Selectivity” value was found to be 3.

B8: R3P39 (peptide)
peptide: HSDGIFTDSYSRYRKQLAVKKYLAAVKK
As for B8, the “R3 EC50” value was 0.5 nM and the “R3 Selectivity” value was determined as 2.

B9: R3P37 (peptide)
peptide: HSDGIFTDSYSRYRKQLAAKKYLADVKKGGT
Regarding B9, the “R3 EC50” value is 4 nM and the “R3 Selectivity” value was 18.

B10: R3P75 (peptide)
peptide: HSDAVFTDQYTRLRKQLAAHKYLNTIKNKRY
Consider B10, for which the “R3 EC50” value amounted to 0.3 nM and the “R3 Selectivity” value is greater than 500.

B11: R3P17 (peptide)
peptide: HSDGIFTDSYSRYRKQMAVKKYLAAVKKYLAAVRHG-NH2
Regarding B11, the “R3 EC50” value turned out to be 4 nM and the “R3 Selectivity” value is 2.

B12: R3P38 (peptide)
peptide: HSDGIFTDSYSRYRKQLAAKKYLADVKK
In the case of B12, the “R3 EC50” value stood at 2.3 nM and the “R3 Selectivity” value came out at 7.

B13: R3P55 (peptide)
peptide: HSDAVFTDNYTRLRKQMAAKKYLNSIKNKRY
Consider B13, for which the “R3 EC50” value came to 0.17 nM and the “R3 Selectivity” value came to 280.

B14: R3P70 (peptide)
peptide: HSDAVFTDNYTRLRKQMAAKKYLNTIKNKRY
For B14, the “R3 EC50” value was 0.4 nM and the “R3 Selectivity” value was greater than 250.

B15: R3P74 (peptide)
peptide: HSDAVFTDNYTRLRKQMAAKHYLNSIKNKRY
Take B15: the “R3 EC50” value amounted to 0.6 nM and the “R3 Selectivity” value came to 150.

B16: R3P82 (peptide)
peptide: HSDAVFTDNYTRLRKQVAVKKYLQSIKNKRY
As for B16, the “R3 EC50” value is 0.4 nM and the “R3 Selectivity” value was 23.

B17: R3P72 (peptide)
peptide: HSDAVFTDQYTRLRKQLAAKKYLNTIKNKRY
As to B17, the “R3 EC50” value was determined as 0.16 nM and the “R3 Selectivity” value was greater than 600.

B18: R3P69 (peptide)
peptide: HSDAVFTDNYTRLRKQMAAKKYLQSIKNKRY
Regarding B18, the “R3 EC50” value amounted to 0.5 nM and the “R3 Selectivity” value turned out to be 190.

B19: R3P73 (peptide)
peptide: HSDAVFTDNYTRLRKQMAAHKYLNSIKNKRY
As to B19, the “R3 EC50” value was 0.3 nM and the “R3 Selectivity” value came out at 170.

B20: R3P68 (peptide)
peptide: HSDAVFTDNYTRLRKQVAAKKYLNSIKNKRY
Take B20: the “R3 EC50” value came out at 0.5 nM.

B21: R3P66 (peptide)
peptide: HSDAVFTDNYTRLRKQVAAKKYLQSIKNKRY
For B21, the “R3 EC50” value was determined as 0.4 nM and the “R3 Selectivity” value came to 250.

B22: R3P59 (peptide)
peptide: HSDAVFTDNYTRLRKQMAVKKYLNSIKNKRY
For the molecule B22, the “R3 EC50” value stood at 0.15 nM and the “R3 Selectivity” value amounted to 70.

B23: R3P71 (peptide)
peptide: HSDAVFTDQYTRLRKQMAAKKYLNSIKNKRY
In the case of B23, the “R3 EC50” value came to 0.09 nM and the “R3 Selectivity” value came out at 660.

B24: R3P79 (peptide)
peptide: HSDAVFTDNYTRLRKQVAAKKYLNSIKNKRY
For the molecule B24, the “R3 EC50” value came out at 0.5 nM.

B25: R3P67 (peptide)
peptide: HSDAVFTDNYTRLRKQLAAKKYLNTIKNKRY
Consider B25, for which the “R3 EC50” value came out at 0.3 nM and the “R3 Selectivity” value turned out to be 330.

B26: R3P56 (peptide)
peptide: HSDAVFTDNYTRLRKQMAVKKYLNSIKKKRY
Turning to B26, the “R3 EC50” value was determined as 0.4 nM and the “R3 Selectivity” value is 100.

B27: R3P77 (peptide)
peptide: HSDAVFTDNYTRLRKQVAAKKYLQSIKKKR
Take B27: the “R3 EC50” value stood at 0.4 nM and the “R3 Selectivity” value worked out at 500.

B28: R3P53 (peptide)
peptide: HSDAVFTDNYTRLRKQMAAKKYLNSIKKKR
Regarding B28, the “R3 EC50” value is 0.2 nM and the “R3 Selectivity” value worked out at 2500.

B29: R3P83 (peptide)
peptide: HSDAVFTDNYTRLRKQVAAKKYLQSILKKRY
As for B29, the “R3 EC50” value was found to be 0.08 nM and the “R3 Selectivity” value amounted to 60.

B30: R3P62 (peptide)
peptide: HSDAVFTDNYTRLRKQVAAKKYLNSIKK
As to B30, the “R3 EC50” value came to 1.8 nM and the “R3 Selectivity” value is 100.

B31: R3P61 (peptide)
peptide: HSDAVFTDNYTRLRKQIAAKKYLQTIKK
As for B31, the “R3 EC50” value was determined as 0.8 nM and the “R3 Selectivity” value stood at 140.

B32: R3P3 (peptide)
peptide: HSDAVFTENYTKLRKQLAAKKYLNDLKKGGT
Regarding B32, the “R3 EC50” value is 0.75 nM and the “R3 Selectivity” value was 130.

B33: R3P23 (peptide)
peptide: HSDAVFTDNYTRLRKQLAAKKYLNDILKGGT
Turning to B33, the “R3 EC50” value came to 0.43 nM and the “R3 Selectivity” value came to 23.

B34: R3P27 (peptide)
peptide: HSDAVFTDNYTRLRKQLAAKKYLNDILNGGT
Turning to B34, the “R3 EC50” value is 0.8 nM and the “R3 Selectivity” value amounted to 8.

B35: R3P28 (peptide)
peptide: HSDAVFTDNYTRLRKQLAVKKYLNDILKGGT
For B35, the “R3 EC50” value was determined as 7 nM and the “R3 Selectivity” value came out at 1.

B36: R3P84 (peptide)
peptide: HSDAVFTDNYTRLRKQVAAKKYLQSILKKR
As to B36, the “R3 EC50” value is 0.06 nM and the “R3 Selectivity” value was found to be 40.

B37: R3P54 (peptide)
peptide: HSDAVFTDNYTRLRKQMAAKKYLNSIKKK
As for B37, the “R3 EC50” value was 0.5 nM and the “R3 Selectivity” value is greater than 200.

B38: R3P60 (peptide)
peptide: HSDAVFTDNYTRLRKQVAAKKYLQSIKK
In the case of B38, the “R3 EC50” value is 1 nM and the “R3 Selectivity” value amounted to 120.

B39: R3P58 (peptide)
peptide: HSDAVFTDNYTRLRKQMAVKKYLNSIKKK
In the case of B39, the “R3 EC50” value is 0.32 nM and the “R3 Selectivity” value amounted to 170.

B40: R3P57 (peptide)
peptide: HSDAVFTDNYTRLRKQMAVKKYLNSIKKKR
Turning to B40, the “R3 EC50” value stood at 0.23 nM and the “R3 Selectivity” value was found to be 190.

B41: R3P40 (peptide)
peptide: HSDGIFTDSYSRYRKQMAVKKYLAAVKK
In the case of B41, the “R3 EC50” value turned out to be 0.7 nM and the “R3 Selectivity” value worked out at 2.

B42: R3P65 (peptide)
peptide: HSDAVFTDNYTRLRKQMAAKKYLNSIKNKR
Turning to B42, the “R3 EC50” value was determined as 0.6 nM and the “R3 Selectivity” value was 130.

B43: R3P8 (peptide)
peptide: HSDAVFTDNYTRLRKQMAVKKYLNSIKK-NH2
B43: the “R3 EC50” value stood at 1.4 nM and the “R3 Selectivity” value stood at 1.5.

B44: R3P78 (peptide)
peptide: HSDAVFTDNYTRLRKQVAAKKYLNSIKKKR
B44: the “R3 EC50” value worked out at 1.1 nM and the “R3 Selectivity” value is 230.
